According to patent US20230287095A1 (published 2023):
Where two headings read alike, the source gives them in different places. Values belong to the binder of their own block, whether it stands above or below them.

Assays:
Experiment in all cases: ELISA
human pro-EMAPII [1] = target: T1, human pro-EMAPII (human, UniProt Q12904 1-312)
T1 chain: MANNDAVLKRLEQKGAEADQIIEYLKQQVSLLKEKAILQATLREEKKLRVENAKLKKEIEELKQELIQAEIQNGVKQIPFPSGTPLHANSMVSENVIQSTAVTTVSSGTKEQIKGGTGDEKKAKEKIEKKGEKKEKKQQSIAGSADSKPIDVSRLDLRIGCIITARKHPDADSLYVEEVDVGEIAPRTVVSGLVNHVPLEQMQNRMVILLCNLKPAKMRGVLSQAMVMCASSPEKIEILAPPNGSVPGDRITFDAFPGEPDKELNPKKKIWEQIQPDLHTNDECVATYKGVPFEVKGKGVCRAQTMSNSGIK

human pro-EMAPII [2] = target: T1, human pro-EMAPII
human pro-EMAPII [3] = target: T1, human pro-EMAPII
human pro-EMAPII [4] = target: T1, human pro-EMAPII

- EC50 (human pro-EMAPII [1]): 3.39 µg/mL
- EC50 (human pro-EMAPII [2]): 3.39 µg/mL
- EC50 (human pro-EMAPII [3]): 3.6 µg/mL
- EC50 (human pro-EMAPII [4]): 3.6 µg/mL
B1: Rat parental (antibody, V domains shown)
VH: AVHLVESGGGFVQPTESLKISCAASGFTFSDAAMYWVRQAPGKGLEWVARIRTKPNNYATYYADSVKGRFTISRDDSKSMVYLQMDNLKTEDTAMYYCTSWSYDFDYWGQGVMVTVSS
VL: DIVMTQGALPNPVPSGESASITCQSSKSLLHSSGKTYLNWYLQRPGQSPHLLIYWMSTRASGVSDRLSGSGSGTDFTLKISSVEAEDVGVYYCQQFLEYPLTFGSGTKLEIK

- EC50 (human pro-EMAPII [1]): 0.329 µg/mL
- EC50 (human pro-EMAPII [2]): 0.329 µg/mL
- EC50 (human pro-EMAPII [3]): 0.361 µg/mL
- EC50 (human pro-EMAPII [4]): 0.361 µg/mL
B2: Chimeric Parental (antibody, V domains shown)
VH: B1 VH
VL: B1 VL
